Measurements as given in paper PMC2566886 (Nucleic Acids Research, 2008).

Molecular target: the molecule itself
Assay: cross-linking

B1: Xenopus Nudt16 protein (X29) (enzyme, Xenopus laevis)
chain: MAESRSPDRGAKEDKPRPRNISREESLQLEGYKHACHALLHAPSQAKLFDRVPIRRVLLMMMRFDGRLGFPGGFVDTRDISLEEGLKRELEEELGPALATVEVTEDDYRSSQVREHPQKCVTHFYIKELKLEEIERIEAEAVNAKDHGLEVMGLIRVPLYTLRDRVGGLPAFLCNNFIGNSKSQLLYALRSLKLLREDQIQEVLKASHRLQY
  stoichiometry N: ≥ 2
